Measured values reported in patent US20200115433A1.

Biological target: …-HLA-A2 complex (human)
Assay: SPR BIAcore T200, single-cycle kinetics, pMHC on chip

B1: single chain TCR s-10 (TCR)
chain: SQQGEEDPQALSIQEGENVTINCSYKGWAQNRQNSGRGLVHLILIRSNEREKHSGRLRVTLDTSKKSSSLEITAVRPADTASYFCATDANARWDFGKGTRLHILPGGGSEGGGSEGGGSEGGGSEGGTGDAGVTQSPRHESVEMGQEVTLRCKPISGHDYLFWYRQTPKRGLELLIYFNHGAVIDDSGMPEDRFSAKMPNASFSTLKIQPVEPRDSAVYFCASQLGSNEQYFGPGTRLTVT
Which Kd does the source give for B1 here?
The Kd was 425 pM.
